Earlier results as cited in publication PMC7915401.
Where two headings read alike, the source gives them in different places.

What was measured:
CD200R1 (Homo sapiens) [1] = biological target: CD200R1 (Homo sapiens) (UniProt Q8TD46)
CD200R1 (Homo sapiens) [2] = biological target: CD200R1 (Homo sapiens) (UniProt Q8TD46); remark: listed apart in the source

UniProt Q8TD46, sequence (Q8TD46 25-265): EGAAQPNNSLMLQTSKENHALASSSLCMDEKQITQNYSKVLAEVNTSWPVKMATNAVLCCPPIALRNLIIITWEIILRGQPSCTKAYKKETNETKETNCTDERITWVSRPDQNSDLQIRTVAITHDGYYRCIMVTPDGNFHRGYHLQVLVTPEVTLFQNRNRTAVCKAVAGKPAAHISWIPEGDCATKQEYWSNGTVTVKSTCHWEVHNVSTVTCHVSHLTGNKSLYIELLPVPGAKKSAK

In the case of CD200 (from UniProt P41217), the Kd (CD200R1 (Homo sapiens) [1]) is given as 500 nM.
For K14 (vOX2) (from UniProt P0C788), the Kd (CD200R1 (Homo sapiens) [2]) is given as 500 nM.
